Assay results published in paper PMC9482650, “Quantitative fragmentomics allow affinity mapping of interactomes” (Nature Communications, 2022).

Legend:
Test in all cases: holdup assay
Parameters in all cases: key: below the threshold = too weak to quantify, mostly under pKd 3.1 to 4
Details in all cases: plain residues with an end cap or a label only (N-terminal biotin on a linker: ado-ado)
DFNB31_1, Q9P202 = target: T1, DFNB31_1, Q9P202
T1 sequence (Q9P202 135-233, limits assumed, looked up): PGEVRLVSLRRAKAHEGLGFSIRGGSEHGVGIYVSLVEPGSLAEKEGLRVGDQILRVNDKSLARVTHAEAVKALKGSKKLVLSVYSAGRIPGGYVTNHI

Inadl_4, Q8NI35 = target: Inadl_4, Q8NI35
Inadl_4, Q8NI35, sequence (Q8NI35 547-651): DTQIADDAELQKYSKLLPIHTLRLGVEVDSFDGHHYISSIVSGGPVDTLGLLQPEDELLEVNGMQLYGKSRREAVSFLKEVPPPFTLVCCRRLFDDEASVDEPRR

LIN7A, O14910 = target: T2, LIN7A, O14910
T2 sequence (O14910 103-200, limits assumed, looked up): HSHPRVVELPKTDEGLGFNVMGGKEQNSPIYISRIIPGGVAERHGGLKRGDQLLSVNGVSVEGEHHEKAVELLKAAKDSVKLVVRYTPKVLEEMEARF

LAP2, Q96RT1 = target: LAP2, Q96RT1
LAP2, Q96RT1, sequence (Q96RT1 other isoform, or with tags, fused parts or gaps): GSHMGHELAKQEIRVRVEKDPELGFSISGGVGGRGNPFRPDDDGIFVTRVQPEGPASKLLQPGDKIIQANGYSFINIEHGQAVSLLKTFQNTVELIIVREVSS

GRIP1_2, Q9Y3R0 = target: T3, GRIP1_2, Q9Y3R0
T3 sequence (Q9Y3R0 145-248, limits assumed, looked up): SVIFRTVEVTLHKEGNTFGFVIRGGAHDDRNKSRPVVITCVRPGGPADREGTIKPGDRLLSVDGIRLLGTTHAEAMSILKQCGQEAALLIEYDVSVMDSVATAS

MAGI2_5, Q86UL8 = target: MAGI2_5, Q86UL8
MAGI2_5, Q86UL8, sequence (Q86UL8 915-1017): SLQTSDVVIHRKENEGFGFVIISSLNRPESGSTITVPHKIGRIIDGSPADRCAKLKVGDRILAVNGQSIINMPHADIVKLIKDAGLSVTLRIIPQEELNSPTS

LNX2_2, Q8N448 = target: T4, LNX2_2, Q8N448
T4 sequence (Q8N448 334-432, limits assumed, looked up): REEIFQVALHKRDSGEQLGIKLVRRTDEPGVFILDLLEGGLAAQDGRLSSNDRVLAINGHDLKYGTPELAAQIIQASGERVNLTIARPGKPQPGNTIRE

Inadl_1, Q8NI35 = target: Inadl_1, Q8NI35
Inadl_1, Q8NI35, sequence (Q8NI35 113-229): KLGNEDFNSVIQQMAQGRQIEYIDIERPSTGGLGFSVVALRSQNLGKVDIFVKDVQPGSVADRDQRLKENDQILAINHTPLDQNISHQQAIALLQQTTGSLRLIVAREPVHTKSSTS

DLG2_2, Q15700 = target: DLG2_2, Q15700
DLG2_2, Q15700, sequence (Q15700 189-283): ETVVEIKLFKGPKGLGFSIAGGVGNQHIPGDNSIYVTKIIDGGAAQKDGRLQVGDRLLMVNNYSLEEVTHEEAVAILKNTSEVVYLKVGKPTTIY

TJP2_1, Q9UDY2 = target: TJP2_1, Q9UDY2
TJP2_1, Q9UDY2, sequence (Q9UDY2 24-128): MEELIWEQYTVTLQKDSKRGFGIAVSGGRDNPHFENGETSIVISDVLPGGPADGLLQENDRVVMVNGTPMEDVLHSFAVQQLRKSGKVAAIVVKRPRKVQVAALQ

MAGI1_1, Q96QZ7 = target: MAGI1_1, Q96QZ7
MAGI1_1, Q96QZ7, sequence (Q96QZ7 1-106): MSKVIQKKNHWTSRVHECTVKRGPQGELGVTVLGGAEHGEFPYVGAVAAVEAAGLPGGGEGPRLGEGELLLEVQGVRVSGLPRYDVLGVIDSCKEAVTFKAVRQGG

APBA3_1, O96018 = target: T5, APBA3_1, O96018
T5 sequence (O96018 389-490, limits assumed, looked up): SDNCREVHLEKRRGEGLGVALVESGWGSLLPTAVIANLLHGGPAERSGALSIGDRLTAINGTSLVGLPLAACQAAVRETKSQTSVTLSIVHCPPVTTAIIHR

MAGI2_6, Q86UL8 = target: MAGI2_6, Q86UL8
MAGI2_6, Q86UL8, sequence (Q86UL8 1141-1229): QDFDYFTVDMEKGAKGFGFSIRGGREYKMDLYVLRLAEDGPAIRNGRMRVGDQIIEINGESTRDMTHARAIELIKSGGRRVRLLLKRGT

MPDZ_12, O75970 = target: T6, MPDZ_12, O75970
T6 sequence (O75970 1857-1958, limits assumed, looked up): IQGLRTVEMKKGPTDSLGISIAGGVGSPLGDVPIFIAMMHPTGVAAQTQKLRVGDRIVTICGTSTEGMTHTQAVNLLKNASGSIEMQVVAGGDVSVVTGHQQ

GORASP2, Q9H8Y8 = target: GORASP2, Q9H8Y8
PDZD7_3, Q9H5P4 = target: T7, PDZD7_3, Q9H5P4
T7 sequence (Q9H5P4 857-944, limits assumed, looked up): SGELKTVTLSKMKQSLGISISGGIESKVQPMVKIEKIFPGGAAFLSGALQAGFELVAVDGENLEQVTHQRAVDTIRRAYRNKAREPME

GRIP2_7, Q9C0E4 = target: GRIP2_7, Q9C0E4
GRIP2_7, Q9C0E4, sequence (Q9C0E4 934-1023): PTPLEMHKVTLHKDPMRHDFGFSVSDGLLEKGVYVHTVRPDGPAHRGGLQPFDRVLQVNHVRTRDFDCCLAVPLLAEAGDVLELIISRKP

SCRIB_3, Q14160 = target: SCRIB_3, Q14160
SCRIB_3, Q14160, sequence (Q14160 999-1103): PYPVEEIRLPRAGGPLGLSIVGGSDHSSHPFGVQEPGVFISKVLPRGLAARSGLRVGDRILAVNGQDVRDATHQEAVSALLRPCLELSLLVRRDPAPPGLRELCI

GORASP1, Q9BQQ3 = target: GORASP1, Q9BQQ3
GORASP1, Q9BQQ3, sequence (Q9BQQ3 1-208): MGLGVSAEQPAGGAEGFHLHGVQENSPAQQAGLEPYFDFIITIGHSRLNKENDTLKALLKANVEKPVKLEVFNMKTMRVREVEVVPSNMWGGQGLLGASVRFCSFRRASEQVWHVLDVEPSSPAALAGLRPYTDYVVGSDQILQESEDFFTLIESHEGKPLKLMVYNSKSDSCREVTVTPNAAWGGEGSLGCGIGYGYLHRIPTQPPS

Inadl_9, Q8NI35 = target: Inadl_9, Q8NI35
Inadl_9, Q8NI35, sequence (Q8NI35 1530-1615): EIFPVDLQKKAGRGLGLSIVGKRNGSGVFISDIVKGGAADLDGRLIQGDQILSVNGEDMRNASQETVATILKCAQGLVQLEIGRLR

PDZRN3_1, Q9UPQ7 = target: T8, PDZRN3_1, Q9UPQ7
T8 sequence (Q9UPQ7 244-349, limits assumed, looked up): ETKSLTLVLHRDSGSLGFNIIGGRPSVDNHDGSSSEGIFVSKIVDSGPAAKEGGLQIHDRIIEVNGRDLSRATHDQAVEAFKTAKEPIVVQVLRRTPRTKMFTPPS

CARD11, Q9BXL7 = target: T9, CARD11, Q9BXL7
T9 sequence (Q9BXL7 662-765, limits assumed, looked up): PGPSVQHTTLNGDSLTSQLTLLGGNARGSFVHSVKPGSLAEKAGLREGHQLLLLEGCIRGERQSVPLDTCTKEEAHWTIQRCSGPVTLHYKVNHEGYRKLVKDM

GRIP2_6, Q9C0E4 = target: GRIP2_6, Q9C0E4
GRIP2_6, Q9C0E4, sequence (Q9C0E4 648-740): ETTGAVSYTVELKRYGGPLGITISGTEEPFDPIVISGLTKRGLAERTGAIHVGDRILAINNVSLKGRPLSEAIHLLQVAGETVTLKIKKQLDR

DVL3, Q92997 = target: T10, DVL3, Q92997
T10 sequence (Q92997 244-331, limits assumed, looked up): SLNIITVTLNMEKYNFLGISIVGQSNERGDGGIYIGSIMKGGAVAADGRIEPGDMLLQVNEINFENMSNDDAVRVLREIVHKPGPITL

NHERF4_4, Q86UT5 = target: NHERF4_4, Q86UT5
NHERF4_4, Q86UT5, sequence (Q86UT5 464-550): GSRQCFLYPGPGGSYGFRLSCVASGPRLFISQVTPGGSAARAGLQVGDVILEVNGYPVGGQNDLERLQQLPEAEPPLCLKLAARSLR

HTRA3, P83110 = target: T11, HTRA3, P83110
T11 sequence (P83110 354-453, limits assumed, looked up): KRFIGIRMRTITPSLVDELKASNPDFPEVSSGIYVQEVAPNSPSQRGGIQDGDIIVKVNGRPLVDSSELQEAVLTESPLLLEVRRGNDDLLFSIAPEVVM

GRIP2_3, Q9C0E4 = target: GRIP2_3, Q9C0E4
GRIP2_3, Q9C0E4, sequence (Q9C0E4 238-339): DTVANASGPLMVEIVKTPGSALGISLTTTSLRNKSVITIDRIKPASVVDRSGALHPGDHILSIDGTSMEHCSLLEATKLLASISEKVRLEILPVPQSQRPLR

QELLEYETTV [XKR7, Q5GH72]
pKd (DFNB31_1, Q9P202): 4.2 | pKd (Inadl_4, Q8NI35): below the threshold | pKd (LIN7A, O14910): 4.38 | pKd (LAP2, Q96RT1): 4.56 | pKd (GRIP1_2, Q9Y3R0): below the threshold | pKd (MAGI2_5, Q86UL8): 4.89 | pKd (LNX2_2, Q8N448): 4.71 | pKd (Inadl_1, Q8NI35): below the threshold | pKd (DLG2_2, Q15700): 4.84 | pKd (TJP2_1, Q9UDY2): below the threshold | pKd (MAGI1_1, Q96QZ7): below the threshold | pKd (APBA3_1, O96018): below the threshold | pKd (MAGI2_6, Q86UL8): 4.45 | pKd (MPDZ_12, O75970): below the threshold | pKd (GORASP2, Q9H8Y8): 3.8 | pKd (PDZD7_3, Q9H5P4): 4.85 | pKd (GRIP2_7, Q9C0E4): below the threshold | pKd (SCRIB_3, Q14160): 4.81 | pKd (GORASP1, Q9BQQ3): 4.23 | pKd (Inadl_9, Q8NI35): 3.89 | pKd (PDZRN3_1, Q9UPQ7): 4.33 | pKd (CARD11, Q9BXL7): below the threshold | pKd (GRIP2_6, Q9C0E4): 3.55 | pKd (DVL3, Q92997): below the threshold | pKd (NHERF4_4, Q86UT5): below the threshold | pKd (HTRA3, P83110): below the threshold | pKd (GRIP2_3, Q9C0E4): below the threshold

SKSLERATQL [COMMD3, Q9UBI1]
pKd (DFNB31_1, Q9P202): 3.74 | pKd (Inadl_4, Q8NI35): below the threshold | pKd (LIN7A, O14910): below the threshold | pKd (LAP2, Q96RT1): below the threshold | pKd (GRIP1_2, Q9Y3R0): 3.5 | pKd (MAGI2_5, Q86UL8): 4.49 | pKd (LNX2_2, Q8N448): 3.56 | pKd (Inadl_1, Q8NI35): below the threshold | pKd (DLG2_2, Q15700): 3.83 | pKd (TJP2_1, Q9UDY2): 3.72 | pKd (MAGI1_1, Q96QZ7): below the threshold | pKd (APBA3_1, O96018): below the threshold | pKd (MAGI2_6, Q86UL8): 3.79 | pKd (MPDZ_12, O75970): below the threshold | pKd (GORASP2, Q9H8Y8): 3.84 | pKd (PDZD7_3, Q9H5P4): 4.23 | pKd (GRIP2_7, Q9C0E4): 3.51 | pKd (SCRIB_3, Q14160): 4.54 | pKd (GORASP1, Q9BQQ3): 3.78 | pKd (Inadl_9, Q8NI35): below the threshold | pKd (PDZRN3_1, Q9UPQ7): 4.11 | pKd (CARD11, Q9BXL7): below the threshold | pKd (GRIP2_6, Q9C0E4): below the threshold | pKd (DVL3, Q92997): 3.58 | pKd (NHERF4_4, Q86UT5): below the threshold | pKd (HTRA3, P83110): below the threshold | pKd (GRIP2_3, Q9C0E4): below the threshold

WRSKRTDTLL [RAMP3, O60896]
pKd (DFNB31_1, Q9P202): 3.74 | pKd (Inadl_4, Q8NI35): below the threshold | pKd (LIN7A, O14910): below the threshold | pKd (LAP2, Q96RT1): below the threshold | pKd (GRIP1_2, Q9Y3R0): below the threshold | pKd (MAGI2_5, Q86UL8): below the threshold | pKd (LNX2_2, Q8N448): below the threshold | pKd (Inadl_1, Q8NI35): below the threshold | pKd (DLG2_2, Q15700): 3.51 | pKd (TJP2_1, Q9UDY2): below the threshold | pKd (MAGI1_1, Q96QZ7): below the threshold | pKd (APBA3_1, O96018): below the threshold | pKd (MAGI2_6, Q86UL8): 3.69 | pKd (MPDZ_12, O75970): below the threshold | pKd (GORASP2, Q9H8Y8): below the threshold | pKd (PDZD7_3, Q9H5P4): 3.99 | pKd (GRIP2_7, Q9C0E4): below the threshold | pKd (SCRIB_3, Q14160): 3.98 | pKd (GORASP1, Q9BQQ3): 3.78 | pKd (Inadl_9, Q8NI35): below the threshold | pKd (PDZRN3_1, Q9UPQ7): 3.73 | pKd (CARD11, Q9BXL7): below the threshold | pKd (GRIP2_6, Q9C0E4): below the threshold | pKd (DVL3, Q92997): below the threshold | pKd (NHERF4_4, Q86UT5): below the threshold | pKd (HTRA3, P83110): below the threshold | pKd (GRIP2_3, Q9C0E4): below the threshold

REVVMRVTTV [MARCHF9, Q86YJ5]
pKd (DFNB31_1, Q9P202): 3.98 | pKd (Inadl_4, Q8NI35): below the threshold | pKd (LIN7A, O14910): 3.82 | pKd (LAP2, Q96RT1): 3.87 | pKd (GRIP1_2, Q9Y3R0): below the threshold | pKd (MAGI2_5, Q86UL8): 4.12 | pKd (LNX2_2, Q8N448): 5.6 | pKd (Inadl_1, Q8NI35): below the threshold | pKd (DLG2_2, Q15700): 5.2 | pKd (TJP2_1, Q9UDY2): 3.92 | pKd (MAGI1_1, Q96QZ7): below the threshold | pKd (APBA3_1, O96018): below the threshold | pKd (MAGI2_6, Q86UL8): 4.4 | pKd (MPDZ_12, O75970): below the threshold | pKd (GORASP2, Q9H8Y8): 5.53 | pKd (PDZD7_3, Q9H5P4): 5.24 | pKd (GRIP2_7, Q9C0E4): below the threshold | pKd (SCRIB_3, Q14160): 4.43 | pKd (GORASP1, Q9BQQ3): 4.31 | pKd (Inadl_9, Q8NI35): 3.75 | pKd (PDZRN3_1, Q9UPQ7): 3.81 | pKd (CARD11, Q9BXL7): below the threshold | pKd (GRIP2_6, Q9C0E4): below the threshold | pKd (DVL3, Q92997): below the threshold | pKd (NHERF4_4, Q86UT5): below the threshold | pKd (HTRA3, P83110): 3.64 | pKd (GRIP2_3, Q9C0E4): below the threshold

VISERNSTTV [C3AR1, Q16581]
pKd (DFNB31_1, Q9P202): below the threshold | pKd (Inadl_4, Q8NI35): below the threshold | pKd (LIN7A, O14910): below the threshold | pKd (LAP2, Q96RT1): below the threshold | pKd (GRIP1_2, Q9Y3R0): below the threshold | pKd (MAGI2_5, Q86UL8): 3.73 | pKd (LNX2_2, Q8N448): 5.05 | pKd (Inadl_1, Q8NI35): below the threshold | pKd (DLG2_2, Q15700): 4.49 | pKd (TJP2_1, Q9UDY2): below the threshold | pKd (MAGI1_1, Q96QZ7): below the threshold | pKd (APBA3_1, O96018): below the threshold | pKd (MAGI2_6, Q86UL8): 3.49 | pKd (MPDZ_12, O75970): below the threshold | pKd (GORASP2, Q9H8Y8): below the threshold | pKd (PDZD7_3, Q9H5P4): 4.41 | pKd (GRIP2_7, Q9C0E4): below the threshold | pKd (SCRIB_3, Q14160): 3.62 | pKd (GORASP1, Q9BQQ3): below the threshold | pKd (Inadl_9, Q8NI35): 3.64 | pKd (PDZRN3_1, Q9UPQ7): below the threshold | pKd (CARD11, Q9BXL7): below the threshold | pKd (GRIP2_6, Q9C0E4): below the threshold | pKd (DVL3, Q92997): below the threshold | pKd (NHERF4_4, Q86UT5): below the threshold | pKd (HTRA3, P83110): below the threshold | pKd (GRIP2_3, Q9C0E4): below the threshold
